In article doi:10.1101/2023.06.01.543357, “Novel histones and histone variant families in prokaryotes” (bioRxiv, 2023):

Target: the molecule itself
Experiment: crystal structure; HTkC at 4.0 mg/mL in 50 mM Tris-HCl pH 7.0, 100 mM KCl, 10% glycerol; sitting drop vapour diffusion, reservoir 0.01 M trisodium citrate, 33% (w/v) PEG 6000; space group P212121, 1.84 Å; four monomers in the asymmetric unit; dimers to tetramer

B1: face-to-face (FtF) histone from Thermococcus kodakarensis (HTkC) (natural protein)
chain: MAEMLVKSKVKEFVKSVDPEMRVSPEFYDALEAEVKALVEKAIKRAQAEGRKTLYARHV
notes: Face-to-face histone HTkC of Thermococcus kodakarensis, product of gene TK1040 (synthesised gene cloned into pET30b, plasmid pRD503); purification was by heat, heparin and size exclusion; The crystal holds four monomers (two dimers) in the asymmetric unit, forming a torus-shaped tetramer; also called FtF histone HTkC; TK1040; source: E. coli BL21(DE3)pLysS, purified (heat step at 70 °C, HiTrap …)
stoichiometry N: 4
